According to the Human Domainome abundance scans (Beltran et al. 2025):
± gives the uncertainty stated by the source.

B1: Lysine-specific demethylase 2B, residues 656 to 722; numbered along this chain, Q8NHM5 (parent)
chain: LPHTAVCLVCGEAGKEDTVEEEEGKFNLMLMECSICNEIIHPGCLKIKESEGVVNDELPNCWECPKC

Variants of: B1
Assay: abundance fitness (aPCA) (normalised: wild type 0, dead -1); higher = more abundant; growth selection in yeast, the domain comes from the species named
Conditions: Homo sapiens

Compared with SPHTAVCLVCGEAGKEDTVEEEEGKFNLMLMECSICNEIIHPGCLKIKESEGVVNDELPNCWECPKC [L1S], LPHTAVCLVCGEAGKEDTVEEEEGKFNLMLMECSICNEIIHAGCLKIKESEGVVNDELPNCWECPKC [P42A] is lower in abundance fitness: -0.069 ± 0.089 for the first, -0.34 ± 0.09 for the second.

LPHTAVYLVCGEAGKEDTVEEEEGKFNLMLMECSICNEIIHPGCLKIKESEGVVNDELPNCWECPKC [C7Y] and LPHTAVCLVCGEAGKEDTVEEEEGKFNLMLMECSICNPIIHPGCLKIKESEGVVNDELPNCWECPKC [E38P] are within error of each other in abundance fitness: -1.04 ± 0.2 for the first, -0.723 ± 0.29 for the second.

LPHTAVCLVCGEAGKEDTVEEEEGKFNLMLMECSICNDIIHPGCLKIKESEGVVNDELPNCWECPKC [E38D] and LPHTAVCLVCGEAGKEDTVEEEEGKFNLMLMECSICNEIIHPGCLKIKESEGVVNAELPNCWECPKC [D56A] are within error of each other in abundance fitness: -0.294 ± 0.35 for the first, 0.001 ± 0.066 for the second.

LPHTAVCLVCGEAGKEDTVEEEEGKFNLMLMECSICNEIIHPGCLKIKESEGVVNCELPNCWECPKC [D56C] and LPHTAVCLVCGEAGKEDTVEEEEGKFNLMLMECSICNEIIHPGCLKIKESEGVVNTELPNCWECPKC [D56T] are within error of each other in abundance fitness: -0.233 ± 0.31 for the first, 0.069 ± 0.083 for the second.

Going from LPHTAVCLVCMEAGKEDTVEEEEGKFNLMLMECSICNEIIHPGCLKIKESEGVVNDELPNCWECPKC [G11M] to LPHTAVCLVCKEAGKEDTVEEEEGKFNLMLMECSICNEIIHPGCLKIKESEGVVNDELPNCWECPKC [G11K], the abundance fitness rises from -0.308 ± 0.087 to 0.222 ± 0.096.

LPHTAVCLVCGEAGKADTVEEEEGKFNLMLMECSICNEIIHPGCLKIKESEGVVNDELPNCWECPKC [E16A] and LPHTAVCLVCGEAGKRDTVEEEEGKFNLMLMECSICNEIIHPGCLKIKESEGVVNDELPNCWECPKC [E16R] are within error of each other in abundance fitness: -0.378 ± 0.15 for the first, -0.148 ± 0.083 for the second.

LPHTAVCLVCGEAGKEDTVEEEEGIFNLMLMECSICNEIIHPGCLKIKESEGVVNDELPNCWECPKC [K25I] and LPHTAVCLVCGEAGKEDTVEEEEGKFNLMLMECSICNEIICPGCLKIKESEGVVNDELPNCWECPKC [H41C] are within error of each other in abundance fitness: -0.453 ± 0.11 for the first, -0.767 ± 0.25 for the second.

LPHTAVCLVCGEAGWEDTVEEEEGKFNLMLMECSICNEIIHPGCLKIKESEGVVNDELPNCWECPKC [K15W] and LPHTAVCLVCGEAGKEDTVEEEEGKFNCMLMECSICNEIIHPGCLKIKESEGVVNDELPNCWECPKC [L28C] are within error of each other in abundance fitness: 0.017 ± 0.18 for the first, -0.16 ± 0.18 for the second.

LPHTAVCLVCGEAGKEDTVEEEEGKFNRMLMECSICNEIIHPGCLKIKESEGVVNDELPNCWECPKC [L28R] and LPHTAVCLVCGEAGKEDTVEEEEGKFNPMLMECSICNEIIHPGCLKIKESEGVVNDELPNCWECPKC [L28P] are within error of each other in abundance fitness: -0.148 ± 0.072 for the first, -0.162 ± 0.16 for the second.

LPHEAVCLVCGEAGKEDTVEEEEGKFNLMLMECSICNEIIHPGCLKIKESEGVVNDELPNCWECPKC [T4E] and LPHTAVCLVCGEAGKEDTVEEEEGKFNLMLMECSICNEIIHPGCLKIKESEGVVNDELPNCWECVKC [P65V] are within error of each other in abundance fitness: -0.448 ± 0.16 for the first, -0.503 ± 0.092 for the second.

Compared with LPFTAVCLVCGEAGKEDTVEEEEGKFNLMLMECSICNEIIHPGCLKIKESEGVVNDELPNCWECPKC [H3F], LPHTAVCLVCGEAGKEMTVEEEEGKFNLMLMECSICNEIIHPGCLKIKESEGVVNDELPNCWECPKC [D17M] is higher in abundance fitness: -0.359 ± 0.17 for the first, 0.392 ± 0.15 for the second.

Compared with LPHTAVCLVCGEAGKERTVEEEEGKFNLMLMECSICNEIIHPGCLKIKESEGVVNDELPNCWECPKC [D17R], LPHTAVCLVCGEAGKEYTVEEEEGKFNLMLMECSICNEIIHPGCLKIKESEGVVNDELPNCWECPKC [D17Y] is lower in abundance fitness: -0.066 ± 0.082 for the first, -0.315 ± 0.13 for the second.

LPHTAVCLVCGEATKEDTVEEEEGKFNLMLMECSICNEIIHPGCLKIKESEGVVNDELPNCWECPKC [G14T] and LPHTAVCLVCGEAGKEDTVEEECGKFNLMLMECSICNEIIHPGCLKIKESEGVVNDELPNCWECPKC [E23C] are within error of each other in abundance fitness: -0.24 ± 0.097 for the first, -0.193 ± 0.16 for the second.

First: LPHTAVCLVCGEAGKEDTVEEEEGKFNLMLMECSICNEIIHPGWLKIKESEGVVNDELPNCWECPKC [C44W]
Second: LPHTAVCLVCGEAGKEDTVEEEEGKFNLMLMECSICNEIIHPGCLKIKESEGVVGDELPNCWECPKC [N55G]
The abundance fitness of the first is lower: -0.8 ± 0.16 for the first, -0.022 ± 0.11 for the second.

LPHTAVCLVCGEAGKEDTVEEEEGKFNLMLMECSICNEIIHPGCLKIKESEGVVCDELPNCWECPKC [N55C] and LPHTAVCLVCGEAGKEDTVEEEEGKFNLMLMECSICNEIIHPGCLKIKESEGVVMDELPNCWECPKC [N55M] are within error of each other in abundance fitness: -0.202 ± 0.37 for the first, -0.203 ± 0.17 for the second.

LPHTAVCLVYGEAGKEDTVEEEEGKFNLMLMECSICNEIIHPGCLKIKESEGVVNDELPNCWECPKC [C10Y] and LPHTAVCLVLGEAGKEDTVEEEEGKFNLMLMECSICNEIIHPGCLKIKESEGVVNDELPNCWECPKC [C10L] are within error of each other in abundance fitness: -0.66 ± 0.39 for the first, -1.01 ± 0.14 for the second.

Compared with LPHTAVCLVCGEAGKEDTVEEEEGKFNLMLMECSICNEIIHPGCEKIKESEGVVNDELPNCWECPKC [L45E], LPHTAVCLVCGEAGKEDTVEEEEGKFNLMLMECSICNEIIHPGCLKMKESEGVVNDELPNCWECPKC [I47M] is higher in abundance fitness: -0.547 ± 0.2 for the first, 0.16 ± 0.097 for the second.

Going from LPHTAVCLVCGEAGKEDTVEEEEGKFNLMLMEGSICNEIIHPGCLKIKESEGVVNDELPNCWECPKC [C33G] to LPHTAVCLVCGEAGKEDTVEEEEGKFNLMLMHCSICNEIIHPGCLKIKESEGVVNDELPNCWECPKC [E32H], the abundance fitness rises from -0.629 ± 0.1 to 0.103 ± 0.12.

Compared with LPHTAVCLVCGEAGKEDTVEEEEGKFNLMLMECSICNEIIHPGCLKIKESEQVVNDELPNCWECPKC [G52Q], LPHTAVCKVCGEAGKEDTVEEEEGKFNLMLMECSICNEIIHPGCLKIKESEGVVNDELPNCWECPKC [L8K] is higher in abundance fitness: -0.094 ± 0.1 for the first, 0.146 ± 0.13 for the second.

First: LPHTAVCDVCGEAGKEDTVEEEEGKFNLMLMECSICNEIIHPGCLKIKESEGVVNDELPNCWECPKC [L8D]
Second: LPHTAVCLVCGEAGKEDTVEEEEGKFNLMLMECSICEEIIHPGCLKIKESEGVVNDELPNCWECPKC [N37E]
The abundance fitness of the first is lower: -0.573 ± 0.24 for the first, 0.02 ± 0.1 for the second.
